Experiment [1] addresses T1, mouse beta klotho expressed on cells (mouse (Mus musculus), UniProt Q99N32 1-1043).
T1 construct: also called Mouse KLB
T1 sequence: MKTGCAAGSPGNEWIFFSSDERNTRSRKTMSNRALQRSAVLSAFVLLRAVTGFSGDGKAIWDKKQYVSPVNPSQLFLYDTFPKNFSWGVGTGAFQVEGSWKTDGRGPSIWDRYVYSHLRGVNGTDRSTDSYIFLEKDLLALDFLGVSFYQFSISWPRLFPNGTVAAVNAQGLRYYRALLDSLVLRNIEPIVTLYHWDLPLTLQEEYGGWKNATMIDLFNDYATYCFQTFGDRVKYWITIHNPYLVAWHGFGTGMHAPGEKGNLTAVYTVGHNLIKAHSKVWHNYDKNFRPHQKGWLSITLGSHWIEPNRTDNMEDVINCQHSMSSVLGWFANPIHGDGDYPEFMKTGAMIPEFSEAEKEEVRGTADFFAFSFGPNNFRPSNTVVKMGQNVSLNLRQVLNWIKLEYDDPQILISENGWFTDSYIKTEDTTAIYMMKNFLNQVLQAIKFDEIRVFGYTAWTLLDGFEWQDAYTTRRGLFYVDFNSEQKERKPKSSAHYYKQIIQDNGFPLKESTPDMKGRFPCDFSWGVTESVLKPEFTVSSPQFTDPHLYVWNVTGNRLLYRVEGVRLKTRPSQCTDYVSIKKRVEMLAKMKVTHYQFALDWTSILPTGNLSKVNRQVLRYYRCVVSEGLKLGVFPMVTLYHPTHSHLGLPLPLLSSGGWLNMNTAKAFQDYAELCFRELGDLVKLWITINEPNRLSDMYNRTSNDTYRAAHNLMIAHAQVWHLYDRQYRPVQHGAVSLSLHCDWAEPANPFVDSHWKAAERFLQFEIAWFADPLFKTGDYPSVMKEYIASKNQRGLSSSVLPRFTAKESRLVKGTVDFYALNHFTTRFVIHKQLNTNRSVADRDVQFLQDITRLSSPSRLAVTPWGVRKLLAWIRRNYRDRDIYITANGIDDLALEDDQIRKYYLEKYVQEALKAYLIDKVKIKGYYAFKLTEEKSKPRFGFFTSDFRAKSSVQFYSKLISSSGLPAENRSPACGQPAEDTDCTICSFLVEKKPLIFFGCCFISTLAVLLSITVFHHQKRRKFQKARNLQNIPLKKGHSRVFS
Kind of experiment: FACS on transfected Expi293 cells. As to the method: (§1) Studies were performed in order to localize the binding site on human KLB of anti-beta klotho antibodies in the 5H23 epitope bin, including 5H23 as described in Example 3, with sequences shown in Tables 1-10 and FIGS. 1-3, and human anti-beta klotho antibodies in the 5H23 epitope bin, such as humanized 5H23 antibodies (e.g., VH SEQ ID NO: 271 and VL SEQ ID NO: 276). For example, FACS-based binding assays for domain mapping were performed on Expi293 cells (Life Technologies, A14635) that were transiently transfected with plasmids encoding variants of KLB: human, mouse, cynomolgus, a chimeric version in which the KL1 domain sequence of mouse KLB (M1-F506) replaces the KL1 domain of human KLB (M1-F508) to create mouse-human KLB (SEQ ID NO: 376), and a second chimera in which the human KL1 sequence (M1-F508) replaces the KL1 domain of mouse KLB (M1-F506) to create human-mouse KLB (SEQ ID NO: 374). Additionally, the expression vector pYD7 harboring no KLB sequence was transfected as a negative control.
(§2) In some studies, binding of a purified sample of a humanized 5H23 antibody (e.g., VH SEQ ID NO: 271 and VL SEQ ID NO: 276) to KLB variants was determined by FACS analysis. […] After washing with PBS/1% BSA/0.1% azide, transfected cells were then co-incubated with labeled anti-human Fc (Jackson lmmunoresearch) for 30 minutes at 4° C. After washing with PBS/1% BSA/0.1% azide, cells were acquired on flow cytometer (FACS Calibur) and analyzed by cytometric software (FlowJo). To display the resulting data, graphs plotting the number of cells as a function of fluorescence intensity were generated, and the median fluorescence intensity (MFI) was determined for each sample as shown in Table 30.

For experiment [2], the target named is T2, cynomolgus beta klotho expressed on cells (cynomolgus monkey (Macaca fascicularis), UniProt Q86Z14 1-1044 (human entry)).
T2 construct: also called Cynomolgus KLB
T2 chain: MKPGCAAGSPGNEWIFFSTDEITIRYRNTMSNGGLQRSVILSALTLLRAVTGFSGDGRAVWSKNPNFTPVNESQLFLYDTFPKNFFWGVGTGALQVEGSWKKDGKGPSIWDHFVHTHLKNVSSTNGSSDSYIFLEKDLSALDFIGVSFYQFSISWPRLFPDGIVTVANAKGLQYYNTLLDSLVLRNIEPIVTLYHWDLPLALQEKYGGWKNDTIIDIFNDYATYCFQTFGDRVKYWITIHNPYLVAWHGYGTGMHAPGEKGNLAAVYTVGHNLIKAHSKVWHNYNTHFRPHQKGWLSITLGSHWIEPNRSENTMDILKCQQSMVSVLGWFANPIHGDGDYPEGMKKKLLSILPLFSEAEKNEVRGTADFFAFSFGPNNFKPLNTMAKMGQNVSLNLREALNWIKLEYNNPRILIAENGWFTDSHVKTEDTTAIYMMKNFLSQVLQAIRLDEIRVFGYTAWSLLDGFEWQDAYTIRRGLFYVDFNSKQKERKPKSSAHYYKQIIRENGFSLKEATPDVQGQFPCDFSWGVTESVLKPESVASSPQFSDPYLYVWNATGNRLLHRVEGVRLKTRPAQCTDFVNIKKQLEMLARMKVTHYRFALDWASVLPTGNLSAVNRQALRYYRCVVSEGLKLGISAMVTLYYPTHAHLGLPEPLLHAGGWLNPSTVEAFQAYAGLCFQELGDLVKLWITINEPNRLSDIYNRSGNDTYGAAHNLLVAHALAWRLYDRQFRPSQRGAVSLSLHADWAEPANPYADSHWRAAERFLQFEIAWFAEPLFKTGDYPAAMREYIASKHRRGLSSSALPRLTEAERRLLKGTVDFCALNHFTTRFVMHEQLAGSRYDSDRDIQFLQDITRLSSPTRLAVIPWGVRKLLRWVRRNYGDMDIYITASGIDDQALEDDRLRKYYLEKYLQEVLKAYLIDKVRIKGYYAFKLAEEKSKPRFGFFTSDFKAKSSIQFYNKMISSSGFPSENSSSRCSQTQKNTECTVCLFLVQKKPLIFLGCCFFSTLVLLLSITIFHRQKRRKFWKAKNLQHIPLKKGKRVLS
Kind of experiment: FACS on transfected Expi293 cells. As to the method: as §1, §2

B1: humanized 5H23 antibody (VH SEQ ID NO: 271 and VL SEQ ID NO: 276) (antibody, V domains shown)
VH: QVQLQQSGAEVKKPGASVKVSCKASGYTFTSYDINWVRQAPGQGLEWIGWIYPGDGSTKYNEKFKGKATITRDTSASTAYMELSSLRSEDTAVYFCARSDYYGSRSFAYWGQGTLVTVSS
VL: DIVMTQSPDSLAVSLGERATINCRASKSVSTSGYVYMHWYQQKPGQPPKLLIYLASYLESGVPDRFSGSGSGTDFTLTISSVQAEDVAVYYCQHSRDLTFPFGGGTKLEIK
notes: also called h5H23; h5H23 (Prep 1)
Consider B1, for which the binding result in experiment [1] is given as “no binding (tested: 1 µg/ml)”.

B2: negative control antibody, anti-keyhole limpet hemocyanin (KLH) antibody (antibody, human IgG1, kappa, V domains shown)
VH: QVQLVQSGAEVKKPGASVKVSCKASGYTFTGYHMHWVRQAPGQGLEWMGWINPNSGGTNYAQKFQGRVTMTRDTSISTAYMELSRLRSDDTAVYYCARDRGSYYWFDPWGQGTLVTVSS
VL: DIQMTQSPSSLSASVGDRVTITCRASQGIRNDLGWYQQKPGKAPKRLIYAASSLQSGVPSRFSGSGSGTEFTLTISSLQPEDFATYYCLQHNSYPLTFGGGTKVEIKR
notes: also called Neg; Control; anti-KLH antibody
Consider B2, for which the binding result in experiment [2] is “no binding (tested: 1 µg/ml)”.

For the origin of these results see US20210030857A1 (NGM BIOPHARMACEUTICALS, published 2021).
